± gives the standard deviation of the averaged measurements.
B1: library; a variant is named by its letters at N, in order (parent)
chain: GCUGUCACCGGUGUAUUACCCUAGUGGUCGACCGGUCUGAUGAGUCUNNNNNNAGACGAAACAGC

Legend:
hypoxanthine [1] = variants of: B1; test: FACS-Seq fitted mean relative fluorescence mCherry/BFP without ligand (log10 relative fluorescence); ligand: hypoxanthine (xanthine aptamer); higher = higher reporter protein expression; settings: HEK293T, ligand present: no
Method in brief: (§1)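 An mCherry reporter containing the ribozyme switch and an EF1α-BFP marker were introduced by lentivirus into HEK293T libraries. Cells were enriched, incubated 48 h with or without ligand, sorted into 6 bins by mCherry/BFP, and bin genomic DNA was PCR-amplified, barcoded and sequenced on MiSeq. Fluorescence represents the normalized fitted normal mean of the bin counts. Fitting was done on log10(mCherry/BFP), scaling to five spiked-in control ribozymes.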

hypoxanthine [2] = variants of: B1; test: normalized RNA/DNA level with ligand (relative to sTRSVctl = 100) (log10 (% of sTRSVctl)); ligand: hypoxanthine (xanthine aptamer); higher = less ribozyme self-cleavage, higher mRNA level; settings: ligand concentration (+) RNA-Seq: 5 mM, HEK293T, reporter: mCherry (pCS4076), ligand present: yes
Method in brief: (§2)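 HEK293T cells were transfected with library plasmids carrying ribozyme switches linked to an mCherry reporter, or an eGFP reporter in some ligand experiments, at 4 µg per well of a 6-well plate, with any ligand added 1 h beforehand. After 72 h, total RNA was extracted with EDTA, reverse-transcribed, amplified, barcoded and sequenced. RNA level was defined as RNA reads over DNA reads, normalized to a spiked-in non-cleaving sequence or to the top-ranked sequences. That value was multiplied by 100 and converted to log10, the top set was 25 sequences, and only sequences with ≥100 DNA reads were retained.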

hypoxanthine [3] = variants of: B1; test: normalized RNA/DNA level without ligand (relative to sTRSVctl = 100) (log10 (% of sTRSVctl)); ligand: hypoxanthine (xanthine aptamer); higher = less ribozyme self-cleavage, higher mRNA level; settings: HEK293T, reporter: mCherry (pCS4076), ligand present: no
Method in brief: as §2

hypoxanthine [4] = variants of: B1; test: FACS-Seq fitted mean relative fluorescence mCherry/BFP with ligand (log10 relative fluorescence); ligand: hypoxanthine (xanthine aptamer); ligand concentration (+) FACS-Seq: 5 mM; higher = higher reporter protein expression; settings: HEK293T, ligand present: yes
Method in brief: as §1

Row | Variant | FACS-Seq fitted mean (log10) (hypoxanthine [1]) | normalized RNA/DNA level with ligand (log10) (hypoxanthine [2]) | normalized RNA/DNA level without ligand (log10) (hypoxanthine [3]) | FACS-Seq fitted mean (log10) (hypoxanthine [4])
1 | AAACAG | -0.248 ± 0.031 | 1.77 ± 0.058 | 1.35 ± 0.055 | 0.234 ± 0.03
2 | GGUGCG | 0.452 ± 0.027 | 1.91 ± 0.056 | 1.58 ± 0.094 | 0.656 ± 0.018
3 | GGUGCU | 0.444 ± 0.03 | 2.022 ± 0.015 | 1.977 ± 0.015 | 0.475 ± 0.041
4 | GCUGGG | 0.121 ± 0.13 | 1.94 ± 0.0053 | 1.55 ± 0.083 | 0.547 ± 0.091
5 | UGACAG | 0.5894 ± 0.0055 | 1.93 ± 0.043 | 1.66 ± 0.064 | 0.556 ± 0.022
6 | UGAGGA | 0.402 ± 0.033 | 1.885 ± 0.015 | 1.5 ± 0.056 | 0.633 ± 0.061
7 | GAUGUU | 0.33 ± 0.0059 | 1.914 ± 0.017 | 1.841 ± 0.0059 | 0.447 ± 0.029
8 | CGGGCU | 0.773 ± 0.061 | 1.946 ± 0.019 | 1.954 ± 0.0037 | 0.578 ± 0.023
9 | GGUUAC | 0.247 ± 0.029 | 1.96 ± 0.064 | 1.8 ± 0.066 | 0.276 ± 0.0034
10 | GCGAGA | -0.0976 ± 0.016 | 1.8 ± 0.042 | 1.31 ± 0.0073 | 0.312 ± 0.025
11 | UAAGAG | 0.312 ± 0.071 | 1.833 ± 0.013 | 1.528 ± 0.011 | 0.422 ± 0.032
12 | UGCCAG | 0.421 ± 0.0089 | 1.9 ± 0.034 | 1.727 ± 0.0076 | 0.288 ± 0.093
13 | CAGACA | 0.574 ± 0.043 | 1.96 ± 0.032 | 1.75 ± 0.045 | 0.74 ± 0.064
14 | GCCGCA | 0.533 ± 0.054 | 1.96 ± 0.067 | 1.845 ± 0.0021 | 0.587 ± 0.027
15 | UGCCGG | -0.14 ± 0.0069 | 1.938 ± 0.0072 | 1.71 ± 0.068 | -0.119 ± 0.14
16 | GUUUAA | 0.00874 ± 0.0085 | 1.917 ± 0.0057 | 1.83 ± 0.03 | 0.204 ± 0.078
17 | GCACUU | 0.8516 ± 0.0035 | 1.965 ± 0.015 | 1.9 ± 0.068 | 0.751 ± 0.069
18 | GUCAGC | 0.371 ± 0.0086 | 1.925 ± 0.011 | 1.79 ± 0.018 | 0.605 ± 0.059
19 | GGUCAC | 0.222 ± 0.021 | 1.91 ± 0.05 | 1.825 ± 0.0063 | 0.633 ± 0.0098
20 | UCUGAA | 0.338 ± 0.025 | 1.951 ± 0.0066 | 1.68 ± 0.04 | 0.512 ± 0.022
21 | ACGUAG | -0.209 ± 0.01 | 1.61 ± 0.021 | 1.16 ± 0.054 | 0.574 ± 0.028
22 | AUUCCU | 0.507 ± 0.036 | 1.922 ± 0.0034 | 1.89 ± 0.064 | 0.567 ± 0.011
23 | AUACCC | 0.513 ± 0.014 | 1.94 ± 0.043 | 1.89 ± 0.027 | 0.292 ± 0.028
24 | UGGGGA | 0.00194 ± 0.046 | 1.88 ± 0.041 | 1.48 ± 0.029 | 0.376 ± 0.0086

Row | Variant | FACS-Seq fitted mean (log10) (hypoxanthine [1]) | normalized RNA/DNA level with ligand (log10) (hypoxanthine [2]) | normalized RNA/DNA level without ligand (log10) (hypoxanthine [3]) | FACS-Seq fitted mean (log10) (hypoxanthine [4])
25 | GCUUAA | 0.221 ± 0.11 | 1.92 ± 0.047 | 1.79 ± 0.036 | 0.508 ± 0.0091
26 | GGUUUG | 0.0895 ± 0.042 | 1.9 ± 0.019 | 1.614 ± 0.0086 | 0.485 ± 0.021
27 | GAAUUA | 0.374 ± 0.05 | 1.91 ± 0.043 | 1.804 ± 0.012 | 0.557 ± 0.089
28 | GAAAAA | 0.653 ± 0.036 | 1.91 ± 0.027 | 1.8 ± 0.041 | 0.629 ± 0.093
29 | UAACCC | 0.667 ± 0.078 | 1.94 ± 0.08 | 1.856 ± 0.0018 | 0.767 ± 0.065
30 | AUCCAU | 0.676 ± 0.075 | 1.96 ± 0.015 | 1.86 ± 0.032 | 0.6901 ± 0.0038
31 | AAGUCG | -0.00018 ± 0.0075 | 1.79 ± 0.11 | 1.187 ± 0.0065 | 0.661 ± 0.016
32 | CGGUAG | 0.498 ± 0.066 | 1.9 ± 0.036 | 1.61 ± 0.029 | 0.506 ± 0.0093
33 | AGGACG | 0.233 ± 0.013 | 1.784 ± 0.01 | 1.37 ± 0.036 | 0.567 ± 0.0099
34 | CAAGCC | 0.17 ± 0.076 | 1.96 ± 0.011 | 1.87 ± 0.028 | 0.404 ± 0.0094
35 | GCAAGA | 0.209 ± 0.025 | 1.94 ± 0.045 | 1.708 ± 0.0095 | 0.332 ± 0.0071
36 | AAUAGA | 0.386 ± 0.012 | 1.89 ± 0.027 | 1.63 ± 0.052 | 0.44 ± 0.055
37 | AAAACU | 0.313 ± 0.03 | 1.91 ± 0.093 | 1.8616 ± 0.00097 | 0.4 ± 0.12
38 | AACCGG | 0.0275 ± 0.00055 | 1.877 ± 0.011 | 1.43 ± 0.031 | 0.526 ± 0.015
39 | GAGUGU | 0.458 ± 0.014 | 1.86 ± 0.036 | 1.6 ± 0.062 | 0.69 ± 0.053
40 | GCCCAG | 0.0481 ± 0.032 | 1.81 ± 0.052 | 1.4 ± 0.027 | 0.24 ± 0.019
41 | UCUAGC | 0.834 ± 0.0096 | 1.95 ± 0.023 | 1.85 ± 0.032 | 0.666 ± 0.062
42 | ACAUGG | 0.335 ± 0.022 | 1.87 ± 0.035 | 1.29 ± 0.027 | 0.631 ± 0.1
43 | AUGAUG | -0.144 ± 0.025 | 1.794 ± 0.0069 | 1.32 ± 0.027 | 0.458 ± 0.12
44 | ACAGUU | -0.0389 ± 0.048 | 1.914 ± 0.0073 | 1.73 ± 0.021 | 0.0577 ± 0.038
45 | AUAGUA | 0.52 ± 0.03 | 1.88 ± 0.034 | 1.751 ± 0.013 | 0.621 ± 0.066
46 | AACUUG | 0.597 ± 0.037 | 1.87 ± 0.027 | 1.54 ± 0.03 | 0.726 ± 0.1
47 | GGAUGA | 0.427 ± 0.085 | 1.89 ± 0.035 | 1.618 ± 0.0099 | 0.633 ± 0.029
48 | CAUGGG | 0.245 ± 0.013 | 1.86 ± 0.038 | 1.39 ± 0.038 | 0.603 ± 0.0033

Row | Variant | FACS-Seq fitted mean (log10) (hypoxanthine [1]) | normalized RNA/DNA level with ligand (log10) (hypoxanthine [2]) | normalized RNA/DNA level without ligand (log10) (hypoxanthine [3]) | FACS-Seq fitted mean (log10) (hypoxanthine [4])
49 | GCGGAA | 0.328 ± 0.11 | 1.88 ± 0.033 | 1.53 ± 0.069 | 0.67 ± 0.06
50 | GCAGAU | -0.106 ± 0.1 | 1.92 ± 0.077 | 1.76 ± 0.031 | -0.1997 ± 0.0017
51 | AGGCUG | 0.279 ± 0.011 | 2 ± 0.04 | 1.78 ± 0.045 | 0.333 ± 0.014
52 | UCAAAU | 0.4822 ± 0.0021 | 1.92 ± 0.02 | 1.77 ± 0.036 | 0.54 ± 0.053
53 | AACAGA | 0.273 ± 0.058 | 1.907 ± 0.0091 | 1.642 ± 0.0026 | 0.322 ± 0.091
54 | ACCAUA | -0.27 ± 0.052 | 1.85 ± 0.049 | 1.849 ± 0.01 | -0.201 ± 0.13
55 | UAAUAA | 0.267 ± 0.015 | 1.902 ± 0.012 | 1.78 ± 0.023 | 0.321 ± 0.019
56 | GAUGGC | 0.369 ± 0.012 | 1.89 ± 0.016 | 1.598 ± 0.0036 | 0.596 ± 0.041
57 | GCUUCG | 0.0523 ± 0.089 | 1.929 ± 0.006 | 1.59 ± 0.029 | 0.504 ± 0.069
58 | UCAACG | 0.504 ± 0.15 | 1.918 ± 0.0024 | 1.783 ± 0.015 | 0.585 ± 0.091
59 | CCUACA | 0.617 ± 0.024 | 1.975 ± 0.01 | 1.9 ± 0.015 | 0.603 ± 0.01
60 | ACUCUU | 0.342 ± 0.07 | 1.95 ± 0.029 | 1.84 ± 0.056 | 0.517 ± 0.056
61 | AAGUUU | -0.231 ± 0.049 | 1.898 ± 0.012 | 1.87 ± 0.023 | -0.254 ± 0.013
62 | AUGGAA | 0.751 ± 0.027 | 1.88 ± 0.044 | 1.65 ± 0.043 | 0.749 ± 0.042
63 | AUAGAA | 0.429 ± 0.005 | 1.87 ± 0.089 | 1.705 ± 0.0096 | 0.6216 ± 0.0039
64 | GAGUUU | 0.34 ± 0.066 | 1.92 ± 0.058 | 1.83 ± 0.026 | 0.348 ± 0.13
65 | CGGAAU | 0.0719 ± 0.0065 | 1.81 ± 0.052 | 1.42 ± 0.016 | 0.548 ± 0.059
66 | CUUGCA | 0.834 ± 0.021 | 2.01 ± 0.023 | 1.87 ± 0.041 | 0.882 ± 0.079
67 | CGUGCA | 0.438 ± 0.026 | 1.932 ± 0.0054 | 1.72 ± 0.03 | 0.662 ± 0.033
68 | UUCAAA | 0.11 ± 0.051 | 1.95 ± 0.026 | 1.802 ± 0.0086 | 0.0695 ± 0.15
69 | GACUCG | 0.331 ± 0.066 | 1.86 ± 0.051 | 1.63 ± 0.083 | 0.567 ± 0.081
70 | GAGGCU | 0.751 ± 0.037 | 2 ± 0.021 | 1.98 ± 0.036 | 0.721 ± 0.025
71 | UAACAG | 0.366 ± 0.019 | 1.849 ± 0.012 | 1.5574 ± 0.00043 | 0.581 ± 0.031
72 | AGCCUG | 0.523 ± 0.04 | 1.92 ± 0.059 | 1.5724 ± 0.00079 | 0.67 ± 0.037
